The results in this text go back to patent US20240383985A1 (published 2024).

Changes are numbered by the printed parent chain. In names and notes the source's numbering stands.

One experiment addresses T1, CS1-Fc (UniProt Q9NQ25 23-226).
T1 chain: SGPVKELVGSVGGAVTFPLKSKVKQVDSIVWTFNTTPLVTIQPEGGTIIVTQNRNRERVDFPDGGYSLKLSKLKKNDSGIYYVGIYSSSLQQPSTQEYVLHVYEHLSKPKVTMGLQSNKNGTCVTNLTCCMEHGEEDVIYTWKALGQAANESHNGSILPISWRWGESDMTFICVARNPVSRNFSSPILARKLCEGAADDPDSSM
Briefly: ELISA. In general terms: ELISA stands for enzyme-linked immunosorbent assay.

Experiment [1] concerns the target T2, CD38 naturally expressed on Daudi cells (human, UniProt P28907 1-300). Briefly: FACS; FIG. 23.
Experiment [2] deals with T2, CD38 naturally expressed on Daudi cells. Put plainly: FACS; FIG. 24.

One may read the EC50 as the concentration that produces a half-maximal response. Low readings indicate higher potency in that assay, high ones lower potency in that assay.

B1: QP344944564368 (antibody)
chain 1: not shown
chain 2: MEFGLSWLFLVAILKGVQCEVQLVESGGGLVQPGGSLRLSCAASGFDFSRYWMSWVRQAPGKGLEWIGEINPDSSTINYAPSLKDKFIISRDNAKNSLYLQMNSLRAEDTAVYYCARPDGNYWYFDVWGQGTLVTVSSASTKGPSVFPLAPSSKSTSGGTAALGCLVKDYFPEPVTVSWNSGALTSGVHTFPAVLQSSGLYSLSSVVTVPSSSLGTQTYICNVNHKPSNTKVDKKVEPKSCDKTHTCPPCPAPEAAGGPSVFLFPPKPKDTLMISRTPEVTCVVVDVSHEDPEVKFNWYVDGVEVHNAKTKPREEQYNSTYRVVSVLTVLHQDWLNGKEYKCKVSNKALPAPIEKTISKAKGQPREPQVYTLPPSREEMTKNQVSLSCAVKGFYPSDIAVEWESNGQPENNYKTTPPVLDSDGSFFLVSKLTVDKSRWQQGNVFSCSVMHEALHNRYTQKSLSLSPGKGGSHHHHHH
chain 3: MDMRVPAQLLGLLLLWFPGSRCDIQMTQSPSSLSASVGDRVTITCKASQDVGIAVAWYQQKPGKVPKLLIYWASTRHTGVPDRFSGSGSGTDFTLTISSLQPEDVATYYCQQYSSYPYTFGQGTKVEIKRTVAAPSVFIFPPSDEQLKSGTASVVCLLNNFYPREAKVQWKVDNALQSGNSQESVTEQDSKDSTYSLSSTLTLSKADYEKHKVYACEVTHQGLSSPVTKSFNRGEC
On to B1, for which, in the experiment with CS1-Fc, the response was half-maximal at 5.24 mg/L (EC50).

B2: QP42764325 (antibody)
chain 1: DIQMTQSPSSLSASVGDRVTITCKASQDVGIAVAWYQQKPGKVPKLLIYWASTRHTGVPDRFSGSGSGTDFTLTISSLQPEDVATYYCQQYSSYPYTFGQGTKVEIKRTVAAPSVFIFPPSDEQLKSGTASVVCLLNNFYPREAKVQWKVDNALQSGNSQESVTEQDSKDSTYSLSSTLTLSKADYEKHKVYACEVTHQGLSSPVTKSFNRGEC
chain 2: EVQLVESGGGLVQPGGSLRLSCAASGFDFSRYWMSWVRQAPGKGLEWIGEINPDSSTINYAPSLKDKFIISRDNAKNSLYLQMNSLRAEDTAVYYCARPDGNYWYFDVWGQGTLVTVSSASTKGPSVFPLAPSSKSTSGGTAALGCLVKDYFPEPVTVSWNSGALTSGVHTFPAVLQSSGLYSLSSVVTVPSSSLGTQTYICNVNHKPSNTKVDKKVEPKSCDKTHTCPPCPAPEAAGGPSVFLFPPKPKDTLMISRTPEVTCVVVDVSHEDPEVKFNWYVDGVEVHNAKTKPREEQYNSTYRVVSVLTVLHQDWLNGKEYKCKVSNKALPAPIEKTISKAKGQPREPQVYTLPPSREEMTKNQVSLSCAVKGFYPSDIAVEWESNGQPENNYKTTPPVLDSDGSFFLVSKLTVDKSRWQQGNVFSCSVMHEALHNRYTQKSLSLSPGK
chain 3: not shown
chain 4: not shown
For the molecule B2, the EC50 worked out at 10.2 nM in experiment [1] and 8.56 nM in experiment [2].

B3: CS1/CD16A/IL-15 trifunctional fusion protein QP7434262 (FC wildtype) (bispecific antibody)
chain 1: not shown
chain 2: not shown
light: B2 chain 1
heavy: EVQLVESGGGLVQPGGSLRLSCAASGFDFSRYWMSWVRQAPGKGLEWIGEINPDSSTINYAPSLKDKFIISRDNAKNSLYLQMNSLRAEDTAVYYCARPDGNYWYFDVWGQGTLVTVSSASTKGPSVFPLAPSSKSTSGGTAALGCLVKDYFPEPVTVSWNSGALTSGVHTFPAVLQSSGLYSLSSVVTVPSSSLGTQTYICNVNHKPSNTKVDKKVEPKSCDKTHTCPPCPAPELLGGPSVFLFPPKPKDTLMISRTPEVTCVVVDVSHEDPEVKFNWYVDGVEVHNAKTKPREEQYNSTYRVVSVLTVLHQDWLNGKEYKCKVSNKALPAPIEKTISKAKGQPREPQVYTLPPSREEMTKNQVSLSCAVKGFYPSDIAVEWESNGQPENNYKTTPPVLDSDGSFFLVSKLTVDKSRWQQGNVFSCSVMHEALHNRYTQKSLSLSPGKGGSHHHHHH
B3 had a concentration for a half-maximal effect (EC50) with CS1-Fc of roughly 0.839 mg/L.

B4: QP42764279 (antibody)
chain 1: B2 chain 1
chain 2: B2 chain 2
chain 3: not shown
chain 4: not shown
B4: a half-maximal response in experiment [1] (EC50) required 8.99 nM.

B5: CS1/CD16A/IL-15 trifunctional fusion protein QP43394342 (FC with L234A/L235A mutation for eliminating function) (bispecific antibody)
chain 1: not shown
chain 2: not shown
light: B2 chain 1
heavy: B3 heavy with L236A, L237A
Molecule B5 yielded an EC50 with CS1-Fc of 1.77 mg/L.
